± gives the standard deviation of the averaged measurements.
Tests used:
hTERT-HMEC = test: percentage of EdU-negative (G0-arrested) nuclei per well, 72 h; higher = more G0 arrest; conditions: reference: sequence is the full UniProt precursor, the tested protein was the secreted form or ectodomain
MCF7 = test: as above; conditions: reference: sequence is the full UniProt precursor, the tested protein was the secreted form or ectodomain
[1] = protein concentration 0.0111425 µM
[2] = protein concentration 0.111425 µM
[3] = protein concentration 0.0325714 µM
[4] = protein concentration 0.325714 µM
[5] = protein concentration 0.0242225 µM
[6] = protein concentration 0.242225 µM
[7] = protein concentration 0.0357143 µM
[8] = protein concentration 0.357143 µM
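Further: secreted proteins added to cultured cells, EdU pulse at the end, nuclei found by Hoechst imaging, EdU status from nuclear versus surrounding ring intensity ratio, PBS as neutral control.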

“MNCRELPLTLWVLISVSTAESCTSRPHITVVEGEPFYLKHCSCSLAHEIETTTKSWYKSSGSQEHVELNPRSSSRIALHDCVLEFWPVELNDTGSYFFQMKNYTQKWKLNVIRRNKHSCFTERQVTSKIVEVKKFFQITCENSYYQTLVNSTSLYKNCKKLLLENNKNPTIKKNAEFEDQGYYSCVHFLHHNGKLFNITKTFNITIVEDRSNIVPVLLGPKLNHVAVELGKNVRLNCSALLNEEDVIYWMFGEENGSDPNIHEEKEMRIMTPEGKWHASKVLRIENIGESNLNVLYNCTVASTGGTDTKSFILVRKADMADIPGHVFTRGMIIAVLILVAVVCLVTVCVIYRVDLVLFYRHLTRRDETLTDGKTYDAFVSYLKECRPENGEEHTFAVEILPRVLEKHFGYKLCIFERDVVPGGAVVDEIHSLIEKSRRLIIVLSKSYMSNEVRYELESGLHEALVERKIKIILIEFTPVTDFTFLPQSLKLLKSHRVLKWKADKSLSYNSRFWKNLLYLMPAKTVKPGRDEPEVLPVLSES” was tested, and the “percentage of EdU-negative” value (hTERT-HMEC; protein concentration 0.03 µM) was 4.552 ± 0.028%, the “percentage of EdU-negative” value (hTERT-HMEC; protein concentration 0.3 µM) was 15.3 ± 3% and the “percentage of EdU-negative” value (MCF7; protein concentration 0.03 µM) was 26.3 ± 1.8%. For the same substance, the “percentage of EdU-negative” value (MCF7; protein concentration 0.3 µM) was 28.5 ± 0.78%.

“MVLLWEPAGAWLALGLALALGPSVAAAAPRQDCTGVECPPLENCIEEALEPGACCATCVQQGCACEGYQYYDCLQGGFVRGRVPAGQSYFVDFGSTECSCPPGGGKISCQFMLCPELPPNCIEAVVVADSCPQCGQVGCVHAGHKYAAGHTVHLPPCRACHCPDAGGELICYQLPGCHGNFSDAEEGDPERHYEDPYSYDQEVAEVEAATALGGEVQAGAVQAGAGGPPAALGGGSQPLSTIQAPPWPAVLPRPTAAAALGPPAPVQAKARRVTEDSEEEEEEEEEREEMAVTEQLAAGGHRGLDGLPTTAPAGPSLPIQEERAEAGARAEAGARPEENLILDAQATSRSTGPEGVTHAPSLGKAALVPTQAVPGSPRDPVKPSPHNILSTSLPDAAWIPPTREVPRKPQVLPHSHVEEDTDPNSVHSIPRSSPEGSTKDLIETCCAAGQQWAIDNDECLEIPESGTEDNVCRTAQRHCCVSYLQEKSCMAGVLGAKEGETCGAEDNDSCGISLYKQCCDCCGLGLRVRAEGQSCESNPNLGYPCNHVMLSCCEGEEPLIVPEVRRPPEPAAAPRRVSEAEMAGREALSLGTEAELPNSLPGDDQDECLLLPGELCQHLCINTVGSYHCACFPGFSLQDDGRTCRPEGHPPQPEAPQEPALKSEFSQVASNTIPLPLPQPNTCKDNGPCKQVCSTVGGSAICSCFPGYAIMADGVSCEDINECVTDLHTCSRGEHCVNTLGSFHCYKALTCEPGYALKDGECEDVDECAMGTHTCQPGFLCQNTKGSFYCQARQRCMDGFLQDPEGNCVDINECTSLSEPCRPGFSCINTVGSYTCQRNPLICARGYHASDDGTKCVDVNECETGVHRCGEGQVCHNLPGSYRCDCKAGFQRDAFGRGCIDVNECWASPGRLCQHTCENTLGSYRCSCASGFLLAADGKRCEDVNECEAQRCSQECANIYGSYQCYCRQGYQLAEDGHTCTDIDECAQGAGILCTFRCLNVPGSYQCACPEQGYTMTANGRSCKDVDECALGTHNCSEAETCHNIQGSFRCLRFECPPNYVQVSKTKCERTTCHDFLECQNSPARITHYQLNFQTGLLVPAHIFRIGPAPAFTGDTIALNIIKGNEEGYFGTRRLNAYTGVVYLQRAVLEPRDFALDVEMKLWRQGSVTTFLAKMHIFFTTFAL” was tested, and the “percentage of EdU-negative” value (hTERT-HMEC; [1]) was 5.72 ± 0.17%, the “percentage of EdU-negative” value (hTERT-HMEC; [2]) was 6.99 ± 0.78% and the “percentage of EdU-negative” value (MCF7; [1]) was 23.7 ± 1.3%. For the same substance, the “percentage of EdU-negative” value (MCF7; [2]) was 25.1 ± 2.6%.

With “MLKPSLPFTSLLFLQLPLLGVGLNTTILTPNGNEDTTADFFLTTMPTDSLSVSTLPLPEVQCFVFNVEYMNCTWNSSSEPQPTNLTLHYWYKNSDNDKVQKCSHYLFSEEITSGCQLQKKEIHLYQTFVVQLQDPREPRRQATQMLKLQNLVIPWAPENLTLHKLSESQLELNWNNRFLNHCLEHLVQYRTDWDHSWTEQSVDYRHKFSLPSVDGQKRYTFRVRSRFNPLCGSAQHWSEWSHPIHWGSNTSKENPFLFALEAVVISVGSMGLIISLLCVYFWLERTMPRIPTLKNLEDLVTEYHGNFSAWSGVSKGLAESLQPDYSERLCLVSEIPPKGGALGEGPGASPCNQHSPYWAPPCYTLKPET” the “percentage of EdU-negative” value (hTERT-HMEC; [3]) was 5.08 ± 0.64%, the “percentage of EdU-negative” value (hTERT-HMEC; [4]) was 5.6 ± 1.3% and the “percentage of EdU-negative” value (MCF7; [3]) was 24.7 ± 0.8%. For the same substance, the “percentage of EdU-negative” value (MCF7; [4]) was 26.37 ± 0.19%.

In the case of Q8NBS9, the “percentage of EdU-negative” value (hTERT-HMEC; [5]) is reported as 4.77 ± 0.42%, the “percentage of EdU-negative” value (hTERT-HMEC; [6]) is reported as 8.37 ± 0.54% and the “percentage of EdU-negative” value (MCF7; [5]) is reported as 27.1 ± 0.28%. For the same substance, the “percentage of EdU-negative” value (MCF7; [6]) was 27.4 ± 0.94%.

With “MTPPERLFLPRVCGTTLHLLLLGLLLVLLPGAQGLPGVGLTPSAAQTARQHPKMHLAHSTLKPAAHLIGDPSKQNSLLWRANTDRAFLQDGFSLSNNSLLVPTSGIYFVYSQVVFSGKAYSPKATSSPLYLAHEVQLFSSQYPFHVPLLSSQKMVYPGLQEPWLHSMYHGAAFQLTQGDQLSTHTDGIPHLVLSPSTVFFGAFAL” the “percentage of EdU-negative” value (hTERT-HMEC; [7]) was 6.4 ± 0.43%, the “percentage of EdU-negative” value (hTERT-HMEC; [8]) was 6.94 ± 0.51% and the “percentage of EdU-negative” value (MCF7; [7]) was 35.3 ± 2.4%. The “percentage of EdU-negative” value (MCF7; [8]) was 42.8 ± 0.91%.
